Values of other authors in article PMC6225487.

Molecular target: TfR (Homo sapiens) (UniProt P02786)
Sequence (P02786 89-760): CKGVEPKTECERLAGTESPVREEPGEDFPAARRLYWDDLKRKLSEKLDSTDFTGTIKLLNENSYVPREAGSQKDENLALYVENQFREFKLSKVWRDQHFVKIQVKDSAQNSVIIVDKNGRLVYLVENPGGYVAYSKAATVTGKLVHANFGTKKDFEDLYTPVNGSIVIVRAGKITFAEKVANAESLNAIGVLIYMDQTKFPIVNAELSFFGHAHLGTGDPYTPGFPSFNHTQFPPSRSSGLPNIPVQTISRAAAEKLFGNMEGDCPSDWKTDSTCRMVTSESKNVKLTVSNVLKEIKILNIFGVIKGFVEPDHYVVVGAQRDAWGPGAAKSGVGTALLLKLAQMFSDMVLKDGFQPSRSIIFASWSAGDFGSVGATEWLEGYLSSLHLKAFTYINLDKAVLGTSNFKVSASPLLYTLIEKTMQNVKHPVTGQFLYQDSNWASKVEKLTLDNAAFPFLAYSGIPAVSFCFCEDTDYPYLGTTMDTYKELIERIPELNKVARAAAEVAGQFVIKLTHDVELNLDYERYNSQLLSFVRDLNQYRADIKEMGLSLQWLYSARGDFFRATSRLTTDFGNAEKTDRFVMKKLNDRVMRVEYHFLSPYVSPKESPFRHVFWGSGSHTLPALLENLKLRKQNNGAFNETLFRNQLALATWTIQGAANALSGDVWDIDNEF

Substance: T7 peptide
- Kd: 10 nM
